Tests used:
[1] = tested on: EMT6 murine breast cancer cells; test: EMT6 breast cancer model, combination with talazoparib; type: in vivo, mouse
Method: EMT6murine breast cancer cells (3×10^5) were orthotopically implanted in the mammary fat pad of female Balb/c mice. When tumors reached ˜90 mm^3 (day 5 after implantation), mice were randomized and dosed with PBS vehicle control, CD80-K89Q-D90Q-E23C-A26C-Fc (0.1 or 1 mg/kg), and/or 0.33 mg/kg talazoparib (Tala). CD80-D90Q-Fc was dosed on Days 0 and 3, talazoparib was dosed daily. Tumor volume was determined by caliper measurements obtained in 2 dimensions and calculated as width^2×length/2. Error bars are depicted as ±SEM

[2] = tested on: Jurkat-IL-2-Luc reporter cells; test: Jurkat-IL-2-Luc and HCT116-CD64 reporter co-stimulation assay; type: cell-based, human
From the text: A T cell co-stimulation assay was designed based on T Cell Activation Bioassay (IL-2) Kit from Promega (Product #J1631). The assay consisted of a genetically engineered Jurkat T cell line that expresses luciferase reporter driven by an IL-2 promoter. Co-engagement of T cell antigen receptor (TCR/CD3) and CD28 co-stimulatory receptor induces activation of T cells and downstream intracellular signaling pathways that in turn regulate the expression of luciferase reporter. As described above, HCT116 human colon cancer cell line was used for TCR engagement using the CDH3×CD3 bispecific and genetically engineered by lentiviral transduction to express human FCγRI.
A 96 well culture plate was seeded with HCT116 parental or HCT116-CD64 cells at 40,000 cells per well in 100 μL RPMI with 10% HI FBS and grown overnight at 37° C. in CO2 incubator. To each well, Jurkat reporter cells (100,000 per well) and 10 μL of the CDH3×CD3 bispecific (8 ng/ml final concentration) were added. 10 μL of serial dilutions of variant CD80-Fc fusion proteins with concentrations ranging from 0-1000 ng/ml (final concentrations per well) was added with appropriate controls. Assay plates were incubated for 6 hours at 37° C. in CO2 incubator for before harvesting culture supernatants and transferring to new plates. Following equilibration, 80 μL of BioGlo luminescence reagent (BioGlo Luciferase assay kit, Promega, G7940) was added into each well. Plates were incubated for 5 minutes before reading luminescence on the EnSight™ plate reader (PerkinElmer).
Jurkat is an immortalized human T cell line, and the Jurkat IL-2-reporter assay assesses the CD28-mediated signaling resulting in activation of the IL-2 promoter. The activity of CD80-Fc fusion proteins was measured using the co-culture HCT116-CD64-Jurkat IL-2 reporter assay, as described in Example 2, but using 20 ng/ml CDH3×CD3 bispecific.

[3] = tested on: NY-ESO1-TCR+ Jurkat reporter cells; test: Jurkat-NYESO1-IL-2-Luc and A375-CD64 co-stimulation assay; type: cell-based, human
From the text: Jurkat-IL-2-Luc reporter cells (Promega, Product #J1631) were engineered with T cell receptor, TCR (Wargo J. Cancer Immunol Immunother 2009; Zhao Y. J Immunol 2005, Li Y, Nat Biotechnol 2005) against HLA-A2 restricted NY-ESO1 (SLLMWITQC-SEQ ID NO: 19) epitope using lentiviral transduction system. Human melanoma cells A375, which express human HLA-A*0201, were transduced with lentiviral vector containing endogenous codon for NY-ESO1 gene (Refseq accession NM_001327.2, CCDS14758.1). Upon expression, the construct underwent proteolytic cleavage at the ubiquitin/epitope junction, thus generating free, cytoplasmic epitope, which can be translocated into the endoplasmic reticulum and loaded onto class I HLA. A375-NY-ESO1 positive cells were treated with IFNγ to induce HLA expression and NY-ESO1 antigen presentation. The HLA expression and the antigen presentation was confirmed by Western Blot. The NY-ESO1^+-A375 cells were further engineered to express human FCγRI (CD64, GenBank:AAA58414.1, RefSeq:P12314.1) for cell surface assembly and displaying of CD80-Fc fusion proteins. The expression of FCγRI was confirmed by flow cytometry analysis.
A 96 well culture plate was seeded with NY-ESO1^+-A375 cells or NY-ESO1^+/FCγRI^+-A375 at 40,000 cells per well in 100 µL growth media (RPMI, 10% Heat Inactivated FBS, 200 μg/mL Hygromycin B, 1 mM sodium pyruvate, 0.1 mM MEM NEAA, 1 μg/mL puromycin) containing 10 ng/ml of human IFNγ (R&D Systems, product #285-IF) to induce MHC-A2 expression and grown overnight at 37° C. in CO2 incubator. To each well, NY-ESO1-TCR^+ Jurkat reporter cells, 100,000 (in 20 μL media), were added. 20 μL of serial dilutions of variant CD80-Fc fusion proteins with concentrations ranging from 0-1000 ng/ml (final concentrations per well) was added with appropriate controls. Assay plates were incubated for 6 hours at 37° C. in CO2 incubator. Following equilibration, 80 μL BioGlo luminescence reagent (BioGlo Luciferase assay kit, Promega, G7940) was added into each well. Plates were incubated for 5 minutes before reading luminescence on the EnSight™ plate reader (PerkinElmer).

recombinant soluble CD28 = molecular target: T1, recombinant soluble CD28 (Homo sapiens, UniProt P10747); test: ELISA binding to recombinant soluble CD28; details: standard ELISA, FIG. 2A
T1 construct: Recombinant soluble CD28 and CTLA-4 proteins (from Creative BioMart, Product #CD28-3910H, CTLA-4-2232H) were immobilized; purchased Creative BioMart CD28-3910H
Method: Binding affinity of purified CD80-Fc fusion proteins (WT and variant) to recombinant soluble CD28 and CTLA-4 proteins was determined by standard ELISA. Recombinant soluble CD28 and CTLA-4 proteins (from Creative BioMart, Product #CD28-3910H, CTLA-4-2232H) were immobilized on 96 well microtiter plate (Thermo Scientific, Product #436110) in bicarbonate buffer at 4° C. overnight. After washing with 1×PBS containing 0.05% Tween 20 (wash buffer) plates were incubated with blocking buffer, 5% BSA in PBS, for 1 hour at room temperature. A serial dilution of CD80-Fc fusion proteins and human IgG1 isotype control antibody was prepared in blocking buffer, added into the plate and incubated at room temperature for 1 hour. Following washing 3× with wash buffer, 1:4000 dilution of HRP conjugated secondary anti-human IgG1 antibody (R&D Systems, MAB110-100) was added into the plate and incubated at room temperature for 1 hour. Plates were washed 3× with wash buffer and a 100 μl of LumiGlo (SeraCare, Product #5430-0040) reagent added into each well, incubated for 5 minutes at room temperature before reading luminescence signal in EnSight™ plate reader (PerkinElmer).

[4] = molecular target: CD28 expressed on Jurkat T cell line / human T cells (human) (UniProt P10747); test: cell-based or functional assay
[5] = Thermal stability by Differential Scanning calorimetry (DSC); type: physicochemical; details: PBS
Method: There is a correlation between the thermal stability of a protein with the overall stability of the protein. Enhanced thermal stability often provides improved manufacturability and longer shelf life/stability. Thermal stability of variant CD80-Fc fusion proteins was assessed by Differential Scanning calorimetry (DSC). Variant CD80-Fc fusion proteins were analyzed using a MicroCal VP-DSC instrument. […] Tables 8-10 show the first thermal transition temperature (Tm1) of CD80-Fc fusion proteins and the enhanced thermal stability of variant CD80-Fc fusion proteins compared to CD80-WT-Fc fusion proteins.

[6] = AC-SINS self-interaction assay; type: physicochemical; details: Table 6
Method: Variant CD80-Fc fusion proteins were assessed by measuring non-specific binding using a DNA- and insulin-binding ELISA (Avery et al., MAbs. 2018 February/March; 10(2): 244-255) and for self-interaction in an AC-SINS assay (affinity-capture self-interaction nanoparticle spectroscopy; Liu et al., 2014, mAbs 6:483-92). DNA- and insulin-binding scores were calculated as the signal ratio of the ELISA signal of the CD80-Fc fusion protein at 10 μg/ml to the ELISA signal in the absence of the Fc-fusion protein (buffer only). For the AC-SINS assay, proteins are captured by anti-human Fc antibodies coated on gold nanoparticles. […] The score ranges obtained from these in vitro assays correlate well with in vivo clearance using huFcRn transgenic (Tg32) mouse. Therapeutic proteins with high scores are at high risk for rapid clearance and unfavorable PK and therapeutics that score low are at low risk and favorable PK.

[7] = tested on: human peripheral blood mononuclear cells (PBMCs); test: Human PBMC IL-2 production assay with plate-bound anti-CD3; type: cell-based; details: Donor 418; 0.3 ug/ml anti-CD3
Method: The ability of the variant CD80-Fc fusion proteins to promote IL-2 production in the context of anti-CD3 (to stimulate T cell receptor signaling) in human peripheral blood mononuclear cells (PBMCs) was tested. To bind anti-CD3 antibody on the plate, the anti-human-CD3 (clone HIT3a, BD Pharmingen) was incubated in 96-well plates at 4° C. overnight at 1 μg/ml unless otherwise noted. Human PBMCs were isolated from freshly collected human whole blood using Ficoll-Paque Plus. Human PBMCs (100,000 per well) were incubated with plate-bound anti-CD3 and the indicated concentrations of soluble CD80-Fc fusion protein in RPMI+10% HI-FBS, pen/strep, sodium pyruvate and non-essential amino acids. After 48 hours incubation, supernatants were collected and IL-2 measured by the Quantikine human IL-2 ELISA kit from R&D.
Additional CD80-Fc fusion proteins were tested in the same PBMC assay, at the concentration of anti-human-CD3 (clone HIT3a, BD Pharmingen) noted.

Cn1ncnc1[C@H]1c2n[nH]c(=O)c3cc(F)cc(c23)N[C@@H]1c1ccc(F)cc1 [Talazoparib, (8S,9R)-5-fluoro-8-(4-fluorophenyl)-9-(1-methyl-1H-1,2,4-triazol-5-yl)-8,9-dihydro-2H-pyrido[4,3,2-de]phthalazin-3(7H)-one, reference compound]
% tumor growth inhibition ([1]; Day 20, Talazoparib 0.33 mg/kg alone): 10.9%
Day 20 tumor volume ([1]; Talazoparib 0.33 mg/kg daily alone): 1750.1 mm^3

CD80-D90K-Fc: variant CD80 ECD (D90K) fused to human IgG1 Fc
enhanced co-stimulation compared to CD80-WT-Fc [2]: ~8 fold
enhanced co-stimulation compared to CD80-WT-Fc [3]: about 4 fold
binding affinity to CD28 compared to WT CD80-Fc (recombinant soluble CD28): increased binding affinity to CD28

CD80-D90N-Fc: variant CD80 ECD (D90N) fused to human IgG1 Fc
enhanced co-stimulation compared to CD80-WT-Fc [3]: about 4 fold

CD80-D90Q-E23C-A26C-Fc (Fc fusion)
IL-2 EC50, human PBMC assay with plate-bound anti-CD3 (average of 5 donors) [4]: 24.2 nM

CD80-K89D-D90K-Fc: variant CD80 ECD (K89D, D90K) fused to human IgG1 Fc
enhanced co-stimulation compared to CD80-WT-Fc [2]: ~8 fold
binding affinity to CD28 compared to WT CD80-Fc (recombinant soluble CD28): increased binding affinity to CD28

CD80-K89D-D90N-Fc: variant CD80 ECD (K89D, D90N) fused to human IgG1 Fc
enhanced co-stimulation compared to CD80-WT-Fc [2]: about 4 fold
enhanced co-stimulation compared to CD80-WT-Fc [3]: about 8 fold
binding affinity to CD28 compared to WT CD80-Fc (recombinant soluble CD28): increased binding affinity to CD28

CD80-K89D-D90Q-Fc: variant CD80 ECD (K89D, D90Q) fused to human IgG1 Fc
enhanced co-stimulation compared to CD80-WT-Fc [2]: about 4 fold
enhanced co-stimulation compared to CD80-WT-Fc [3]: about 8 fold
binding affinity to CD28 compared to WT CD80-Fc (recombinant soluble CD28): increased binding affinity to CD28

CD80-K89D-Fc: variant CD80 ECD (K89D) fused to human IgG1 Fc
binding affinity to CD28 compared to WT CD80-Fc (recombinant soluble CD28): increased binding affinity to CD28

CD80-K89Q-D90Q-161C-Fc: disulfide stabilized variant CD80-Fc fusion protein (K89Q, D90Q, I61C)
DSC Tm1 [5]: 64.10 ± 0.17 °C
AC-SINS Score [6]: −1

CD80-K89Q-D90Q-V22C-G45C-Fc: disulfide stabilized variant CD80-Fc fusion protein (K89Q, D90Q, V22C, G45C)
DSC Tm1 [5]: 68.67 ± 0.22 °C
AC-SINS Score [6]: −1

CD80-K89Q-Fc: variant CD80 ECD (K89Q) fused to human IgG1 Fc
binding affinity to CD28 compared to WT CD80-Fc (recombinant soluble CD28): increased binding affinity to CD28

CD80-T28V-T57V-Fc (Fc fusion)
IL-2 EC50, human PBMC assay, donor 418, anti-CD3 0.3 ug/ml [4]: 2.64 nM

CD80-T28V-T57V-Fc: non-cysteine stabilized variant CD80-Fc fusion protein
DSC Tm1 [5]: 64 °C
EC50 [7]: 2.64 nM

CD80-V11L-T62Y-Fc (Fc fusion)
IL-2 EC50, human PBMC assay, donor 418, anti-CD3 0.3 ug/ml [4]: 3.34 nM

CD80-V11L-T62Y-Fc: non-cysteine stabilized variant CD80-Fc fusion protein
DSC Tm1 [5]: 58.76 ± 0.14 °C
EC50 [7]: 3.34 nM

CD80-V11L-V22F-Fc (Fc fusion)
IL-2 EC50, human PBMC assay, donor 418, anti-CD3 0.3 ug/ml [4]: 4.95 nM

CD80-V11L-V22F-Fc: non-cysteine stabilized variant CD80-Fc fusion protein
DSC Tm1 [5]: 61.52 ± 0.12 °C
EC50 [7]: 4.95 nM

CD80-V22F-T28V-T57V-Fc (Fc fusion)
IL-2 EC50, human PBMC assay, donor 418, anti-CD3 0.3 ug/ml [4]: 5.13 nM
